Experiments:
[1] = system: HeLa Kyoto; assay: solubility in G1/S (NP-40 vs SDS abundance) (log2 ratio); higher = more soluble; conditions: cell cycle stage: G1/S
[2] = system: HeLa Kyoto; assay: melting temperature (median over replicates), in situ; higher = more thermally stable
[3] = system: HeLa Kyoto; assay: solubility change mitosis vs G1/S (difference of NP-40 vs SDS log2 ratios) (log2 ratio difference); higher = more soluble in mitosis
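For melting temperature (median over replicates), in situ in this document: HeLa Kyoto cells synchronized by double thymidine or nocodazole block, proteins quantified by TMT10plex mass spectrometry, three independent biological replicates.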
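For solubility change mitosis vs G1/S (difference of NP-40 vs SDS log2 ratios) in this document: synchronized HeLa Kyoto cells (double thymidine block for G1/S, nocodazole release for mitosis), protein amounts in NP-40 versus SDS lysates quantified by mass spectrometry, three biological replicates.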
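For solubility in G1/S (NP-40 vs SDS abundance) in this document: HeLa Kyoto cells arrested at G1/S by double thymidine block, proteins quantified by TMT10plex mass spectrometry in mild NP-40 versus SDS extracts, three biological replicates.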

Sequence of LLPH (chain, as listed by the source): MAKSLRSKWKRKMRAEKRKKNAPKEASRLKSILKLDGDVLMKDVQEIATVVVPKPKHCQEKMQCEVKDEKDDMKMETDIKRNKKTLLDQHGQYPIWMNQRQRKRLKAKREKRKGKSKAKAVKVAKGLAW
Sequence of TFAP2A (chain, as listed by the source): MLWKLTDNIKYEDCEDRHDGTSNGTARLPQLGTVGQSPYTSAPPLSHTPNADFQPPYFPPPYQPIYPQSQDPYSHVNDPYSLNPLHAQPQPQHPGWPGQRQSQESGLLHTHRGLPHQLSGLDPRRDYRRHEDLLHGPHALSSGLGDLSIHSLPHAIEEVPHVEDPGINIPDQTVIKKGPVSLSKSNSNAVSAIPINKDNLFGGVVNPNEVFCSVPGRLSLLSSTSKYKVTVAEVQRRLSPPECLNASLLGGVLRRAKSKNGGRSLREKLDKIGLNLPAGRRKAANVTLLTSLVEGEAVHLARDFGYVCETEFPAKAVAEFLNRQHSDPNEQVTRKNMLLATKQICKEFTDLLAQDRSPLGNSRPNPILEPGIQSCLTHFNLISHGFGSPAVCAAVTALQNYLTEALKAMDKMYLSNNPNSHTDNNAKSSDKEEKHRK
Sequence of UBE2D1 (chain, as listed by the source): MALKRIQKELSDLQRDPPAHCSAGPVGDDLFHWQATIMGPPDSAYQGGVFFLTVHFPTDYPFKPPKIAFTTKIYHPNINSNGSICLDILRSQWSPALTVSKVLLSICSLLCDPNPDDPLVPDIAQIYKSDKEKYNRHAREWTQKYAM

Row | Substance | solubility in G1/S (log2) [1] | melting temperature ([2]; cell cycle stage: G1/S) [°C] | melting temperature ([2]; cell cycle stage: mitosis) [°C] | solubility change mitosis (log2) [3]
1 | ARSB | 0.364 | 56.3 | 57.3 | -0.198
2 | CRYBG3 | -0.18 | 51.3 | 50.4 | -0.00814
3 | GTF2H1 | -0.0948 | 50.2 | 49.1 | 0.114
4 | KIAA1217 | 0.0766 | 49.8 | 50.7 | 0.0131
5 | LLPH | -1.23 | 58.7 | 55.8 | 1.03
6 | MAAAAAALSGAGTPPAGGGAGGGGAGGGGSPPGGWAVARLEGREFEYLMKKRSVTIGRNSSQGSVDVSMGHSSFISRRHLEIFTPPGGGGHGGAAPELPPAQPRPDAGGDFYLRCLGKNGVFVDGVFQRRGAPPLQLPRVCTFRFPSTNIKITFTALSSEKREKQEASESPVKAVQPHISPLTINIPDTMAHLISPLPSPTGTISAANSCPSSPRGAGSSGYKVGRVMPSDLNLMADNSQPENEKEASGGDSPKDDSKPPYSYAQLIVQAITMAPDKQLTLNGIYTHITKNYPYYRTADKGWQNSIRHNLSLNRYFIKVPRSQEEPGKGSFWRIDPASESKLIEQAFRKRRPRGVPCFRTPLGPLSSRSAPASPNHAGVLSAHSSGAQTPESLSREGSPAPLEPEPGAAQPKLAVIQEARFAQSAPGSPLSSQPVLITVQRQLPQAIKPVTYTVATPVTTSTSQPPVVQTVHVVHQIPAVSVTSVAGLAPANTYTVSGQAVVTPAAVLAPPKAEAQENGDHREVKVKVEPIPAIGHATLGTASRIIQTAQTTPVQTVTIVQQAPLGQHQLPIKTVTQNGTHVASVPTAVHGQVNNAAASPLHMLATHASASASLPTKRHNGDQPEQPELKRIKTEDGEGIVIALSVDTPPAAVREKGVQN [FOXK2] | 0.267 | – | 50.7 | -0.0189
7 | MAAAATMAAAARELVLRAGTSDMEEEEGPLAGGPGLQEPLQLGELDITSDEFILDEVDVHIQANLEDELVKEALKTGVDLRHYSKQVELELQQIEQKSIRDYIQESENIASLHNQITACDAVLERMEQMLGAFQSDLSSISSEIRTLQEQSGAMNIRLRNRQAVRGKLGELVDGLVVPSALVTAILEAPVTEPRFLEQLQELDAKAAAVREQEARGTAACADVRGVLDRLRVKAVTKIREFILQKIYSFRKPMTNYQIPQTALLKYRFFYQFLLGNERATAKEIRDEYVETLSKIYLSYYRSYLGRLMKVQYEEVAEKDDLMGVEDTAKKGFFSKPSLRSRNTIFTLGTRGSVISPTELEAPILVPHTAQRGEQRYPFEALFRSQHYALLDNSCREYLFICEFFVVSGPAAHDLFHAVMGRTLSMTLKHLDSYLADCYDAIAVFLCIHIVLRFRNIAAKRDVPALDRYWEQVLALLWPRFELILEMNVQSVRSTDPQRLGGLDTRPHYITRRYAEFSSALVSINQTIPNERTMQLLGQLQVEVENFVLRVAAEFSSRKEQLVFLINNYDMMLGVLMERAADDSKEVESFQQLLNARTQEFIEELLSPPFGGLVAFVKEAEALIERGQAERLRGEEARVTQLIRGFGSSWKSSVESLSQDVMRSFTNFRNGTSIIQGALTQLIQLYHRFHRVLSQPQLRALPARAELINIHHLMVELKKHKPNF [VPS52] | -0.194 | 51.5 | 50.4 | -0.138
8 | MAAAEEGCSVGAEADRELEELLESALDDFDKAKPSPAPPSTTTAPDASGPQKRSPGDTAKDALFASQEKFFQELFDSELASQATAEFEKAMKELAEEEPHLVEQFQKLSEAAGRVGSDMTSQQEFTSCLKETLSGLAKNATDLQNSSMSEEELTKAMEGLGMDEGDGEGNILPIMQSIMQNLLSKDVLYPSLKEITEKYPEWLQSHRESLPPEQFEKYQEQHSVMCKICEQFEAETPTDSETTQKARFEMVLDLMQQLQDLGHPPKELAGEMPPGLNFDLDALNLSGPPGASGEQCLIM [G3V3G9] | -0.172 | 51.1 | 51.3 | -0.158
9 | MAAEEKDPLSYFAAYGSSSSGSSDEEDNIEPEETSRRTPDPAKSAGGCRNKAEKRLPGPDELFRSVTRPAFLYNPLNKQIDWERHVVKAPEEPPKEFKIWKSNYVPPPETYTTEKKPPPPELDMAIKWSNIYEDNGDDAPQNAKKARLLPEGEETLESDDEKDEHTSKKRKVEPGEPAKKKK [C1ORF52] | 0.074 | 54.3 | 52.5 | 0.413
10 | MAAGERSWCLCKLLRFFYSLFFPGLIVCGTLCVCLVIVLWGIRLLLQRKKKLVSTSKNGKNQMVIAFFHPYCNAGGGGERVLWCALRALQKKYPEAVYVVYTGDVNVNGQQILEGAFRRFNIRLIHPVQFVFLRKRYLVEDSLYPHFTLLGQSLGSIFLGWEALMQCVPDVYIDSMGYAFTLPLFKYIGGCQVGSYVHYPTISTDMLSVVKNQNIGFNNAAFITRNPFLSKVKLIYYYLFAFIYGLVGSCSDVVMVNSSWTLNHILSLWKVGNCTNIVYPPCDVQTFLDIPLHEKKMTPGHLLVSVGQFRPEKNHPLQIRAFAKLLNKKMVESPPSLKLVLIGGCRNKDDELRVNQLRRLSEDLGVQEYVEFKINIPFDELKNYLSEATIGLHTMWNEHFGIGVVECMAAGTIILAHNSGGPKLDIVVPHEGDITGFLAESEEDYAETIAHILSMSAEKRLQIRKSARASVSRFSDQEFEVTFLSSVEKLFK [ALG11] | 0.114 | – | 52.4 | -0.199
11 | MAAPSEVAAIAPGEGDGGGGGFGSWLDGRLEALGVDRAVYGAYILGILQEEEEEEKLDALQGILSAFLEEDSLLNICKEIVERWSETQNVVTKVKKEDEVQAIATLIEKQAQIVVKPRMVSEEEKQRKAALLAQYADVTDEEDEADEKDDSGATTMNIGSDKLLFRNTNVEDVLNARKLERDSLRDESQRKKEQDKLQRERDKLAKQERKEKEKKRTQRGERKR [CCDC43] | 0.483 | 53.8 | 53.7 | 0.216
12 | MAAPWASLRLVAPMWNGRIRGIHRLGAAVAPEGNQKKKRTILQFLTNYFYDVEALRDYLLQREMYKVHEKNRSYTWLEKQHGPYGAGAFFILKQGGAVKFRDKEWIRPDKYGHFSQEFWNFCEVPVEAVDAGDCDINYEGLDNLLRLKELQSLSLQRCCHVDDWCLSRLYPLADSLQELSLAGCPRISERGLACLHHLQNLRRLDISDLPAVSNPGLTQILVEEMLPNCEVVGVDWAEGLKSGPEEQPRDTASPVPA [ATP5SL] | 0.174 | 52.9 | 52 | -0.0178
13 | MADDFGFFSSSESGAPEAAEEDPAAAFLAQQESEIAGIENDEGFGAPAGSHAAPAQPGPTSGAGSEDMGTTVNGDVFQEANGPADGYAAIAQADRLTQEPESIRKWREEQRKRLQELDAASKVTEQEWREKAKKDLEEWNQRQSEQVEKNKINNRIADKAFYQQPDADIIGYVASEEAFVKESKEETPGTEWEKVAQLCDFNPKSSKQCKDVSRLRSVLMSLKQTPLSR [CLTB] | 0.159 | 56.3 | 53.3 | 0.651
14 | MADEATRRVVSEIPVLKTNAGPRDRELWVQRLKEEYQSLIRYVENNKNADNDWFRLESNKEGTRWFGKCWYIHDLLKYEFDIEFDIPITYPTTAPEIAVPELDGKTAKMYRGGKICLTDHFKPLWARNVPKFGLAHLMALGLGPWLAVEIPDLIQKGVIQHKEKCNQ [UFC1] | 0.134 | 53.3 | 52.9 | 0.23
15 | MADQRQRSLSTSGESLYHVLGLDKNATSDDIKKSYRKLALKYHPDKNPDNPEAADKFKEINNAHAILTDATKRNIYDKYGSLGLYVAEQFGEENVNTYFVLSSWWAKALFVFCGLLTCCYCCCCLCCCFNCCCGKCKPKAPEGEETEFYVSPEDLEAQLQSDEREATDTPIVIQPASATETTQLTADSHPSYHTDGFN [DNAJC5] | 0.0289 | 56 | 53.5 | -0.273
16 | MAEPSVESSSPGGSATSDDHEFDPSADMLVHDFDDERTLEEEEMMEGETNFSSEIEDLAREGDMPIHELLSLYGYGSTVRLPEEDEEEEEEEEEGEDDEDADNDDNSGCSGENKEENIKDSSGQEDETQSSNDDPSQSVASQDAQEIIRPRRCKYFDTNSEVEEESEEDEDYIPSEDWKKEIMVGSMFQAEIPVGICRYKENEKVYENDDQLLWDPEYLPEDKVIIFLKDASRRTGDEKGVEAIPEGSHIKDNEQALYELVKCNFDTEEALRRLRFNVKAAREELSVWTEEECRNFEQGLKAYGKDFHLIQANKVRTRSVGECVAFYYMWKKSERYDFFAQQTRFGKKKYNLHPGVTDYMDRLLDESESAASSRAPSPPPTASNSSNSQSEKEDGTVSTANQNGVSSNGPGEILNKEEVKVEGLHINGPTGGNKKPLHADMDTNGYETDNLTTDPKLAHMTARNENDFDEKSERPAKRRRVNSNGKESPGSSEFFQEAVSHGKFEELENTDD [MIER1] | 0.00102 | 53.4 | 52.2 | -0.0394
17 | MAERPEDLNLPNAVITRIIKEALPDGVNISKEARSAISRAASVFVLYATSCANNFAMKGKRKTLNASDVLSAMEEMEFQRFVTPLKEALEAYRREQKGKKEASEQKKKDKDKKTDSEEQDKSRDEDNDEDEERLEEEEQNEEEEVDN [POLE3] | 0.357 | 49.2 | – | 0.5
18 | MYRLMSAVTARAAAPGGLASSCGRRGVHQRAGLPPLGHGWVGGLGLGLGLALGVKLAGGLRGAAPAQSPAAPDPEASPLAEPPQEQSLAPWSPQTPAPPCSRCFARAIESSRDLLHRIKDEVGAPGIVVGVSVDGKEVWSEGLGYADVENRVPCKPETVMRIASISKSLTMVALAKLWEAGKLDLDIPVQHYVPEFPEKEYEGEKVSVTTRLLISHLSGIRHYEKDIKKVKEEKAYKALKMMKENVAFEQEKEGKSNEKNDFTKFKTEQENEAKCRNSKPGKKKNDFEQGELYLREKFENSIESLRLFKNDPLFFKPGSQFLYSTFGYTLLAAIVERASGCKYLDYMQKIFHDLDMLTTVQEENEPVIYNRARFYVYNKKKRLVNTPYVDNSYKWAGGGFLSTVGDLLKFGNAMLYGYQVGLFKNSNENLLPGYLKPETMVMMWTPVPNTEMSWDKEGKYAMAWGVVERKQTYGSCRKQRHYASHTGGAVGASSVLLVLPEELDTETINNKVPPRGIIVSIICNMQSVGLNSTALKIALEFDKDRSD [LACTB] | -2.26 | – | – | 0.376
19 | MYRSGERLLGSHALPAEQRDFLPLETTNNNNNHHQPGAWARRAGSSASSPPSASSSPHPSAAVPAADPADSASGSSNKRKRDNKASGGRAAGGGRADGGGVVYSGTPWKRRNYNQGVVGLHEEISDFYEYMSPRPEEEKMRMEVVNRIESVIKELWPSADVQIFGSFKTGLYLPTSDIDLVVFGKWENLPLWTLEEALRKHKVADEDSVKVLDKATVPIIKLTDSFTEVKVDISFNVQNGVRAADLIKDFTKKYPVLPYLVLVLKQFLLQRDLNEVFTGGIGSYSLFLMAVSFLQLHPREDACIPNTNYGVLLIEFFELYGRHFNYLKTGIRIKDGGSYVAKDEVQKNMLDGYRPSMLYIEDPLQPGNDVGRSSYGAMQVKQAFDYAYVVLSHAVSPIAKYYPNNETESILGRIIRVTDEVATYRDWISKQWGLKNRPEPSCNGPVSSSSATQSSSSDVDSDATPCKTPKQLLCRPSTGNRVGSQDVSLESSQAVGKMQSTQTTNTSNSTNKSQHGSARLFRSSSKGFQGTTQTSHGSLMTNKQHQGKSNNQYYHGKKRKHKRDAPLSDLCR [PAPD5] | -0.654 | – | – | 0.189
20 | PEAK1 | -0.569 | – | – | 0.302
21 | PHRF1 | -0.629 | – | – | 0.566
22 | PPP3R1 | 0.385 | – | – | -0.104
23 | PTPN6 | 0.166 | – | – | 0.0101
24 | RLF | -0.887 | – | – | 0.617
25 | SYNM | -0.94 | – | – | 0.752
26 | TET2 | 0.155 | – | – | -0.257
27 | TFAP2A | 0.185 | – | – | 0.505
28 | UBE2D1 | 0.473 | – | – | -0.0476
29 | VPS13B | -0.247 | – | – | -0.0582

Reference: the supplement of paper PMC5998384
